Assay results from patent US20130156764A1, “NEUTRALIZATION OF FLT3 LIGAND AS A LEUKEMIA THERAPY” (The Johns Hopkins University, priority 2010, published 2013).

Key:
[1] = tested on: BaF3/ITD and BaF3/TKD cells; test: Survival (MTT, trypan blue) of BaF3/ITD and BaF3/TKD cells with FL; format: cell-based; conditions: serum-free, 4 days
Protocol: (§1) 2×10^4 cells in 100 μl serum-free medium were plated into triplicate wells of 96-well plates. Survival was assessed by MTT assay (Roche, Indianapolis, Ind.) and viable cell number counting by trypan blue (GIBCO, Rockville, Md.) exclusion according to the manufacturer's instructions.
(§2) BaF3 is another cell line lacking expression of endogenous FLT3. BaF3 cells transfected with mutant forms of FLT3 were starved in serum-free medium for 16 hours and washed with PBS before FL stimulation. […] Changes of other FLT3 downstream signals were not observed. An MTT survival assay was performed in BaF3/ITD and BaF3/TKD cells cultured in serum-free medium in the presence and absence of FL for 4 days. […] The effect was also confirmed by counting viable cell numbers by trypan blue exclusion (FIG. 13C, P<0.05). These findings indicate that FL stimulation prolongs the survival of cells expressing FLT3 mutants.

FLT3/ITD in MV411 cells = molecular target: T1, FLT3/ITD in MV411 cells (Homo sapiens, UniProt P36888, INS600HVDFREYEYD); test: FL stimulation, FLT3 phosphorylation in MV411 cells; format: cell-based
T1 construct: endogenous in cells; host or cells: MV411
T1 sequence (P36888 with tags, fused parts or gaps INS600HVDFREYEYD): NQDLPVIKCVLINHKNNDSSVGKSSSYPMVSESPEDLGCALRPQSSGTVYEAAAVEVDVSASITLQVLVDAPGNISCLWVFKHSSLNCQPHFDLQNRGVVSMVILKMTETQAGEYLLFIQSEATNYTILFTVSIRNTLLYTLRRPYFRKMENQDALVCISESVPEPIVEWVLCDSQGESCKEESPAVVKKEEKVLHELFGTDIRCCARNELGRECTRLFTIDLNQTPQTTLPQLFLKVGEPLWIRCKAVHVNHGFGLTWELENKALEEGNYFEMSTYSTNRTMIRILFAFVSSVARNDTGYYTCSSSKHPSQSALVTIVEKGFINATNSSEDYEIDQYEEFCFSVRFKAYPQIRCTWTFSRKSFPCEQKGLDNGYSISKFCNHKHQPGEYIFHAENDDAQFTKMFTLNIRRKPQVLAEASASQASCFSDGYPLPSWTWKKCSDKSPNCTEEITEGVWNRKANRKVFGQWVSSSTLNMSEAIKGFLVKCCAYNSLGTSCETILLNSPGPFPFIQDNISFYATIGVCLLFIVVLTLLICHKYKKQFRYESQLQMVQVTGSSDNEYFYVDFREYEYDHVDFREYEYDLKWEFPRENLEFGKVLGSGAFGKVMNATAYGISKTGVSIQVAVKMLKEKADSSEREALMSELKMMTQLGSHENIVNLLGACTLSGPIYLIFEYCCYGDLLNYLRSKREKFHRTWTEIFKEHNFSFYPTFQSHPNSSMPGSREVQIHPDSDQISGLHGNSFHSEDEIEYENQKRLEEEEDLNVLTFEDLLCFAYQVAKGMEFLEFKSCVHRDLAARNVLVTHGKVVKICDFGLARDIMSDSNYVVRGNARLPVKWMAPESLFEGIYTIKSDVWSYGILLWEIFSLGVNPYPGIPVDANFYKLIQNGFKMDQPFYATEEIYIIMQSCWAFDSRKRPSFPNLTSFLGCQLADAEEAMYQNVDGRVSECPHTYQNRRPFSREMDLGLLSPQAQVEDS

[2] = tested on: TF1/ITD and TF1/TKD cells; test: Apoptosis (Annexin V/7AAD) and survival of TF1/ITD and TF1/TKD cells with FL; format: cell-based; conditions: for survival (viable cell numbers): serum free medium; for apoptotic population: serum-free, 48 hours, presence of FL
Protocol: Evaluation of apoptosis was performed by annexin V/7-AAD staining according to the recommendations of the manufacturer (Becton Dickinson, San Jose, Calif.). After serum starvation, 5×10^5 cells were washed with cold PBS and re-suspended in 100 μL of binding buffer. Following incubation with 5 μL of annexin V-PE and 5 μL of 7-AAD in the dark for 15 minutes at room temperature, cells were analyzed by flow cytometry (FACSort, Becton Dickinson) with Cell Quest software (Becton Dickinson). Compensation was performed with samples stained with either annexin V-PE or 7-AAD alone.
as §1
The possibility of further activation of FLT3 mutant receptors by exogenous FL was also tested in cell lines in which FL autocrine, paracrine, or intracrine stimulation of FLT3 receptor might exist. […] TF1 cells expressing FLT3 mutant receptors were starved for 16 hours in serum-free medium and washed once with PBS to deplete soluble FL (either produced by the cells or contained in the serum). These cells were then stimulated with exogenous FL for 15 minutes. More than 2-fold enhancement of FLT3 phosphorylation was detected in both TF1/ITD and TF1/TKD cell lines (FIG. 12A). […] To assess the functional effect of exogenous FL, TF1/ITD and TF1/TKD cells were cultured in serum-free medium in the absence and presence of FL for 48 hours. Apoptosis was assessed by Annexin V and 7AAD staining followed by FACS analysis. […] There was no change of cell cycle status in response to FL in these cells (data not shown).

MV411 cells = test: Survival (MTT) of MV411 cells with FL; format: cell-based, human; conditions: MV411, serum-free, 4 days
Protocol: as §1
The MV411 cell line is a human leukemia-derived cell line expressing a FLT3/ITD mutation and has lost the wild-type allele. […] MV411 cells express endogenous FL that might diminish the degree of the effect of exogenous FL on FLT3/ITD mutant receptor. To evaluate the effect of FL on the survival of MV411 cells, MV411 cells were cultured in serum-free medium in the presence and absence of FL for 4 days.

[3] = tested on: AKT and MAPK phosphorylation; test: FL stimulation, downstream signaling immunoblot in BaF3/ITD and BaF3/TKD cells; format: cell-based
Protocol: TF1 and BaF3 cells were transfected with pCINeo constructs containing either FLT3/ITD or FLT3/TKD mutation by electroporation (Bio-Rad, Hercules, Calif.). Stable transfectants were then selected by limiting dilution in 96-well plates with 1 mg/mL G418 (Invitrogen, Carlsbad, Calif.).
as §2

phosphorylation of FLT3 (FLT3/ITD in MV411 cells): increased phosphorylation
B1: FL: Recombinant human FL (fms-related tyrosine kinase ligand) purchased from PeproTech; SEQ ID NO: 1 (protein, listed as Homo sapiens)
chain: MTVLAPAWSPTTYLLLLLLLSSGLSGTQDCSFQHSPISSDFAVKIRELSDYLLQDYPVTVASNLQDEELCGGLWRLVLAQRWMERLKTVAGSKMQGLLERVNTEIHFVTKCAFQPPPSCLRFVQTNISRLLQETSEQLVALKPWITRQNFSRCLELQCQPDSSTLPPPWSPRPLEATAPTAPQPPLLLLLLLPVGLLLLAAAWCLHWQRTRRRTPRPGEQVPPVPSPQDLLLVEH
survival (MTT, confirmed by trypan blue) [1]: increased survival
cell cycle status in response to FL ([2]; TF1/ITD and TF1/TKD): no change
survival (viable cell numbers) ([2]; TF1/ITD): increased the survival
apoptotic population ([2]; TF1/ITD): 49.54%
survival (viable cell numbers) ([2]; TF1/TKD): no significant difference
apoptotic population ([2]; TF1/TKD): 31.63%
survival (MV411 cells): prolonged survival
increase of phosphorylation of AKT ([3]; BaF3/ITD): 1.3 fold
MAPK phosphorylation ([3]; BaF3/ITD and BaF3/TKD): increase of MAPK phosphorylation
increase of phosphorylation of AKT ([3]; BaF3/TKD): 2.2 fold
